Assay: Congo Red assay of gel formation of peptide solutions in PBS buffer (pH 7.4) with a hemostatic porous dressing
Assay type: physicochemical
Settings: PBS pH 7.4, compared with pure RADA16 2.5%
Protocol: A Congo Red assay was performed to assess gel formation of peptide solutions in a PBS buffer solution (pH 7.4) when used with a hemostatic porous dressing. RADA16 2.5% (PuraMatrix®) was plated on a glass slide and also on a hemostatic porous dressing on a glass slide. PuraMatrix® was spread on the surface of the hemostatic porous dressing using a stick. After 30 seconds, 1% Congo Red solution was added around and on top of the gel aliquots and then the excess Congo Red solution was wiped off prior to examination. RADA16 2.5% was also plated on an absorbable gelatin sponge (Surgifoam®, Ethicon) and on an absorbable oxidized regenerated cellulose woven dressing (Surgicel®, Ethicon). Visualization of gel formation determined the success or failure of gelation. […] Specifically, (1) and (2) show pure RADA16 2.5% (PuraMatrix®). In (3), (4), and (5), RADA16 2.5% is shown with absorbable gelatin sponge (Surgifoam®, Ethicon). In (6), (7), and (8), RADA16 2.5% is shown with absorbable oxidized regenerated cellulose woven dressing (Surgicel®, Ethicon).
A Congo Red assay was performed to assess gel formation of peptide solutions in a PBS buffer solution (pH 7.4) when used with a hemostatic porous dressing.
IEIK13 1.3% (pH 3.0) was plated on a glass slide and on a hemostatic porous dressing on a glass slide. […] Visualization of gel formation determined the success or failure of gelation. […]

RADARADARADARADA [RADA16 2.5%]
gel formation (visualization) (on absorbable gelatin sponge (Surgifoam, Ethicon)): gelled
gel formation (visualization) (on absorbable oxidized regenerated cellulose woven dressing (Surgicel, Ethicon)): gelled

From US20200282100A1, “Hemostatic Dressings with Self-Assembling Peptide Hydrogels” (3-D Matrix, Ltd., priority 2016, published 2020)
